These results are taken from patent US20220313780A1, “METHODS AND COMPOSITIONS FOR TREATING INFLAMMATORY CONDITIONS” (THE SCRIPPS RESEARCH INSTITUTE, priority 2019, published 2022).

One experiment deals with T1, EPCR (Homo sapiens, UniProt Q9UNN8).
T1 construct: endogenous in cells; host or cells: THP1-null (wildtype) cells, PMA-differentiated
T1 sequence (Q9UNN8 18-238): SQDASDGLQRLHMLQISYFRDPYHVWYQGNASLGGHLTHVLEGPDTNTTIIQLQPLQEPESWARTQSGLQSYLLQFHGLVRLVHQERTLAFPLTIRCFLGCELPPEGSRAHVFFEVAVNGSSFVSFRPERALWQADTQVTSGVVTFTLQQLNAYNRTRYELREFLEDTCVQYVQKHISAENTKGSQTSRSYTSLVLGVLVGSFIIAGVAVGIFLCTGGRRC
The experiment is described as follows: Caspase 1 activity assay in THP1 cells after blocking EPCR with antibody RCR-252. Format: cell-based. Conditions: RCR-252 50 μg/mL before APC 4 μg/mL, TR47 50 μM or P3R 50 μM. The method, then: THP1 or (A) NLRP3 deficient cells (THP1-defNLRP3) cells were plated at a final concentration of 1×10^6/mL in 96 well plates and incubated with PMA (0.5 μM) for 3 hours 37° C. in supplemented RPMI. Media was subsequently changed every 24 hours for 3 days. In brief, selected wells were treated with APC (4 μg/mL), TR47 (50 μM) or P3R (50 μM) for 1 hour, washed with DPBS, and incubated with LPS (1 μg/mL) for 3 hours at 37° C. in serum-free RPMI. After a DPBS wash, cells were incubated with ATP (5 mM) in the presence or absence of 10 μM YVAD (caspase 1 inhibitor) or 2.5 μM ZVAD (pan-caspase inhibitor) for 45 minutes at 37° C. […] Again, cells were washed with DPBS and incubated with ATP (5 mM) in the presence or absence of 10 μM YVAD (caspase 1 inhibitor) or 2.5 μM ZVAD (pan-caspase inhibitor) for 45 minutes prior to performing the caspase 1 activity following manufacturer's directions measuring luminescence. […] After a DPBS wash, cells were incubated with ATP (5 mM) in the presence or absence of 10 μM YVAD (caspase 1 inhibitor) or 2.5 μM ZVAD (pan-caspase inhibitor) for 45 minutes at 37° C., prior to performing the caspase 1 activity assay following manufacturer's directions measuring luminescence (relative luminescent units, RLU). […]

The next experiment deals with T2, PAR1 (Homo sapiens, UniProt P25116).
T2 construct: endogenous in cells; host or cells: THP1-null (wildtype) cells, PMA-differentiated
T2 sequence (P25116 22-425): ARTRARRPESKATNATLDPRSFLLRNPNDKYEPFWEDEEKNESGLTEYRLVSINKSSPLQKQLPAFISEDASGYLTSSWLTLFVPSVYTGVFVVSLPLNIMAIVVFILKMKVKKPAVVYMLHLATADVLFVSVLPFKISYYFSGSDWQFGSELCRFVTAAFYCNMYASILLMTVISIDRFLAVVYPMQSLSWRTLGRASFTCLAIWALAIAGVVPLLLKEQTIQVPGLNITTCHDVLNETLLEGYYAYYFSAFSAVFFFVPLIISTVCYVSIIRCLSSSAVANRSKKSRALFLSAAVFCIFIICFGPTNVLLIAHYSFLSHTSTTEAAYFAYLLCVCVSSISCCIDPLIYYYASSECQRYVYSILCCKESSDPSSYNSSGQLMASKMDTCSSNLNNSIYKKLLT
The experiment is described as follows: Caspase 1 activity assay in THP1 cells after inhibition of PAR1 (WEDE15, ATAP2, SCH79797). Format: cell-based. The following applies: TR47 50 μM or P3R 50 μM; for effect of PAR1 blocking antibody ATAP2 on reduction of caspase 1 activity: ATAP2 10 μg/mL for 15 minutes before APC 4 μg/mL; for effect of PAR1 small molecule antagonist SCH79797 on reduction of caspase 1 activity: SCH79797 20 μM for 20 minutes before APC 4 μg/mL; for effect of PAR1 blocking antibody WEDE15 on reduction of caspase 1 activity: WEDE15 20 μg/mL for 15 minutes before APC 4 μg/mL. How it is done:
THP1 or (A) NLRP3 deficient cells (THP1-defNLRP3) cells were plated at a final concentration of 1×10^6/mL in 96 well plates and incubated with PMA (0.5 μM) for 3 hours 37° C. in supplemented RPMI. Media was subsequently changed every 24 hours for 3 days. In brief, selected wells were treated with APC (4 μg/mL), TR47 (50 μM) or P3R (50 μM) for 1 hour, washed with DPBS, and incubated with LPS (1 μg/mL) for 3 hours at 37° C. in serum-free RPMI. After a DPBS wash, cells were incubated with ATP (5 mM) in the presence or absence of 10 μM YVAD (caspase 1 inhibitor) or 2.5 μM ZVAD (pan-caspase inhibitor) for 45 minutes at 37° C. In (B), after PMA differentiation, select wells were treated with APC (4 μg/mL), TR47 (50 μM) or P3R (50 μM) for 1 hour, washed with DPBS, and incubated with LPS (1 μg/mL) for 3 hours at 37° C. in serum-free RPMI. Cells were washed with DPBS before being treated with the NLRP3 inhibitor MCC950 (10 μM) or DMSO for 30 minutes. Again, cells were washed with DPBS and incubated with ATP (5 mM) in the presence or absence of 10 μM YVAD (caspase 1 inhibitor) or 2.5 μM ZVAD (pan-caspase inhibitor) for 45 minutes prior to performing the caspase 1 activity following manufacturer's directions measuring luminescence. In (C-F) prior to APC, TR47 or P3R treatment, cells were incubated with antibodies or inhibitors. In (C) cell were incubated with the blocking EPCR antibody, RCR-252 (50 μg/mL); (D) mouse monoclonal antibody to PAR3, clone 19b (clonel9b; 25 μg/mL) for 30 minutes. In (E) cells were treated with either mouse monoclonal antibodies to PAR1, WEDE15 (20 μg/mL) or ATAP2 (10 μg/mL) for 15 minutes. In (F) cells were treated with the small molecule PAR1 inhibitor, SCH79797 (SCH; 20 μM) for 20 minutes. Following antibody or small molecule treatments (C-F) selected wells were treated with APC (4 μg/mL), TR47 (50 μM) or P3R (50 μM) for 1 hour, washed with DPBS, and incubated with LPS (1 μg/mL) for 3 hours at 37° C. in serum-free RPMI. After a DPBS wash, cells were incubated with ATP (5 mM) in the presence or absence of 10 μM YVAD (caspase 1 inhibitor) or 2.5 μM ZVAD (pan-caspase inhibitor) for 45 minutes at 37° C., prior to performing the caspase 1 activity assay following manufacturer's directions measuring luminescence (relative luminescent units, RLU). (A-F) Data points represent mean±SD of at least 3 independent experiments. *P<0.05 (vs. LPS+ATP); #P<0.05 (vs. LPS+ATP & APC, TR47 or P3R); ##P<0.005 (vs. LPS+ATP & APC, TR47 or P3R); n.s. not significant.
Caspase 1 assay. THP1-null (wildtype cells) or NLRP3-deficient THP1-(defNLRP3) cells were plated at a final concentration of 1×10^6/mL in 96 well plates and incubated with PMA (0.5 μM) for 3 hours 37° C. in supplemented RPMI. Media was subsequently changed every 24 hours for 3 days. Various subsets of wells were selected and cells were treated for 60 minutes at 37° C. in serum-free RPMI with various concentrations of APC, TR47 or P3R. Following DPBS wash, cells were incubated with LPS (lipopolysaccharide) (1 μg/mL) for 3 hours at 37° C. in serum-free RPMI to prime the inflammasome. After a DPBS wash, to fully activate caspase 1 activity, cells were incubated with ATP (5 mM), in the presence or absence of 10 μM YVAD (caspase 1 inhibitor), and 2.5 μM ZVAD (pan-caspase inhibitor) for 45 minutes at 37° C., prior to performing the caspase 1 activity assay following the manufacturer's (Promega) directions; caspase 1 activity was monitored as luminescence changes due to substrate hydrolysis and reported as relative luminescent units (RLU).^15 In select experiments, caspase 1 activity of experimental conditions were normalized to YVAD (caspase 1 inhibitor) conditions and expressed as normalized caspase 1 activity.

Turning to “GAPPNSFEEFPFSALEGWTGATIT [P3R, PAR3-derived 24-mer peptide]”, the “effect of blocking EPCR on inhibition of caspase 1 activity” value in the experiment with EPCR is listed as “though trending, did not reach significance”. Moreover, in the experiment with PAR1, the “effect of PAR1 blocking antibody ATAP2 on reduction of caspase 1 activity” value is on record as “None of the PAR1-targeted inhibitors statistically significantly reduced the anti-inflammatory activity”, the “effect of PAR1 small molecule antagonist SCH79797 on reduction of caspase 1 activity” value was “None of the PAR1-targeted inhibitors statistically significantly reduced the anti-inflammatory activity” and the “effect of PAR1 blocking antibody WEDE15 on reduction of caspase 1 activity” value is recorded as “None of the PAR1-targeted inhibitors statistically significantly reduced the anti-inflammatory activity”.

Turning to “NPNDKYEPFWEDEEKNESGL [TR47, PAR1-derived 20 amino acid peptide]”, the “effect of blocking EPCR on inhibition of caspase 1 activity” value with EPCR is “significant loss in their inhibition of caspase 1 activity”. Moreover, in the experiment with PAR1, the “effect of PAR1 blocking antibody ATAP2 on reduction of caspase 1 activity” value is recorded as “not by ATAP2”; the “effect of PAR1 small molecule antagonist SCH79797 on reduction of caspase 1 activity” value was “inhibited by SCH79797 and WEDE15”; the “effect of PAR1 blocking antibody WEDE15 on reduction of caspase 1 activity” value is “inhibited by SCH79797 and WEDE15”.
